Measurements published in publication PMC6405930, “Conservation of the Amyloid Interactome Across Diverse Fibrillar Structures” (Scientific Reports, 2019).

Assays:
Ab1 fibrils [1] = tested on: T1, Ab1 fibrils; assay: Fibril incubation with plasma, quantitative MS/MS of bound proteins; assay type: binding, human; details: 50:1 w/w plasma protein:fibril
T1 construct: Synthetic amyloid β peptide 1–40 was purchased from Caslo Aps (Lyngby, Denmark); purchased Caslo Aps (Lyngby, Denmark); host or cells: synthetic peptide
Method: (§1) Plasma and CSF solutions were centrifuged (40,000 g, 20 min) to remove any aggregates. The protein concentration was determined using 280 nm absorbance assuming 1 Abs = 1 mg/mL. Samples with fibril material (20 μg), plasma (500 μg) or CSF (40 μg) proteins were prepared in 200 μL PBS buffer with 5 mM EDTA. Control samples (without fibril material) were prepared similarly. All samples were incubated at room temperature for one hour under gentle agitation. Fibrils and fibril-bound proteins were pelleted by centrifugation at 17,000 g for 30 minutes. The supernatant (175 μL) was removed and the aggregate was re-suspended in 175 μL PBS and pelleted again before further preparation for gel analysis and spin-filter assisted digest for quantitative MS/MS.
(§2) The fibril-protein pellets were transferred to spin-filters (0.22 μm), washed twice in PBS (100 μL) and once in 1 M NaCl (100 μL). The fibrils and fibril-bound proteins were dissolved by one-hour incubation in 100 μL 6 M guanidinium chloride followed by elution from the spin-filter. The eluted proteins were loaded onto a 3 kDa MWCO filter unit for filter-assisted unfolding, reduction, alkylation, and trypsin digestion. In brief, samples were washed twice in 8 M urea, once in 8 M urea with 50 mM DTT, once in 8 M urea with 50 mM iodoaceteamide, and twice in 8 M Urea. The filter units were dried by centrifugation (14,000 g in 30 minutes) after every addition. Trypsin digestion was carried out with 0.25 μg sequencing grade trypsin from Sigma Aldrich in 50 mM ammonium bicarbonate overnight at 37 °C. The tryptic peptides were collected by centrifugation, acidified with TFA (0.1%) and micro-purified using POROS R2 column material (Applied Biosystems) packed in P200 pipette tips (Sarstedt).
(§3) LC-MS/MS analyses were performed on an EASY-nLC II system (Thermo Fisher Scientific) connected to a TripleTOF 5600+ mass spectrometer (Sciex) equipped with a NanoSpray III source (Sciex) and operated under Analyst TF 1.6.0 control.
(§4) The micro-purified tryptic peptides were dissolved in 0.1% formic acid, injected and trapped on an in-house packed trap column (2 cm × 100 μm I.D) with RP ReproSil-Pur C18-AQ 3 μm resin (Dr. Maisch GmbH). Peptides were eluted from the trap column and separated on a 15 cm analytical column (75 μm i.d.) packed in-house in a pulled emitter with RP ReproSil-Pur C18-AQ 3 μm resin (Dr. Maisch GmbH). Elution from the analytical column was performed with a linear gradient from 5% to 35% phase B (90% acetonitrile with 0.1% formic acid) over 20 min for protein identification and 50 min for quantitative analysis, respectively.
(§5) All samples were analysed three times, yielding nine MS/MS experiments for each fibril for both plasma and CSF. For the area-based extracted ion chromatogram (XIC) quantification, the acquisition method was set up as an information-dependent acquisition (IDA) experiment collecting up to 25 MS/MS spectra in each 1.6 sec cycle using an exclusion window of 6 sec.
(§6) XIC quantification was based on the average ion intensity of the three most abundant peptides for each protein. Only proteins quantified in at least four out of nine MS/MS experiments per fibril were included in the quantification. The total ion scores were visualized after grouping the proteins according to function (Figure S11).
(§7) For each MS/MS experiment, the ion intensities of the individual proteins were normalized to the total ion intensity of that MS/MS experiment to achieve a relative protein composition. The contribution of each protein was averaged over all nine MS/MS experiments (Tables 1 and 2).

Ab2 fibrils [2] = tested on: T2, Ab2 fibrils; assay: as above; assay type: binding, human; details: 50:1 w/w plasma protein:fibril
T2 construct: Two structurally distinct fibrils of the Aβ(1–40) peptide associated with AD
Method: as §1, with “Samples with fibril material (20 μg), plasma (500 μg) or CSF (40 μg) proteins were prepared in 200 μL PBS buffer with 5 mM EDTA.” left out
as §2, §3, §4, §5, §6, §7

glucagon fibrils [3] = biological target: T3, glucagon fibrils (Homo sapiens, UniProt P01275); assay: as above; assay type: binding; details: 50:1 w/w plasma protein:fibril
T3 construct: fibrils of the peptide hormone glucagon
Method: as §1, with “Samples with fibril material (20 μg), plasma (500 μg) or CSF (40 μg) proteins were prepared in 200 μL PBS buffer with 5 mM EDTA.” left out
as §2, §3, §4, §5, §6, §7

C-36 fibrils [4] = biological target: T4, C-36 fibrils (Homo sapiens, UniProt P01009); assay: as above; assay type: binding; set-up: key to Identification status of plasma protein bound: C-36: *: Identified, but not quantified; —: Not identified in any of the samples; details: for Identification status of plasma protein bound: C-36: symbol cells
T4 construct: the 36 residue C-terminal fragment of α1-antitrypsin (C-36)
Method: as §1, with “Samples with fibril material (20 μg), plasma (500 μg) or CSF (40 μg) proteins were prepared in 200 μL PBS buffer with 5 mM EDTA.” left out
as §2, §3, §4, §5, §6, §7

αSN fibrils [5] = biological target: T5, αSN fibrils (Homo sapiens, UniProt P37840); assay: as above; assay type: binding; set-up: key to Identification status of plasma protein bound: αSN: *: Identified, but not quantified; —: Not identified in any of the samples; details: for Identification status of plasma protein bound: αSN: symbol cells
Method: as §1, with “Samples with fibril material (20 μg), plasma (500 μg) or CSF (40 μg) proteins were prepared in 200 μL PBS buffer with 5 mM EDTA.” left out
as §2, §3, §4, §5, §6, §7

FAS4-AD aggregates [6] = tested on: T6, FAS4-AD aggregates; assay: as above; assay type: binding, human; set-up: key to Identification status of plasma protein bound: FAS4-AD: *: Identified, but not quantified; —: Not identified in any of the samples; details: for Identification status of plasma protein bound: FAS4-AD: symbol cells
T6 construct: aggregates of a mutated version of the FAS1-4 domain of TGFBIp
Method: as §1, with “Samples with fibril material (20 μg), plasma (500 μg) or CSF (40 μg) proteins were prepared in 200 μL PBS buffer with 5 mM EDTA.” left out
as §2, §3, §4, §5, §6, §7

Ab1 fibrils [7] = tested on: T1, Ab1 fibrils; assay: Fibril incubation with CSF, quantitative MS/MS of bound proteins; assay type: binding, human; details: 4:1 w/w CSF protein:fibril
Ab2 fibrils [8] = tested on: T2, Ab2 fibrils; assay: as above; assay type: binding, human; details: 4:1 w/w CSF protein:fibril
glucagon fibrils [9] = biological target: T3, glucagon fibrils; assay: as above; assay type: binding; details: 4:1 w/w CSF protein:fibril
C-36 fibrils [10] = biological target: T4, C-36 fibrils; assay: as above; assay type: binding; set-up: key to Identification status of CSF protein bound: C-36: *: Identified, but not quantified; —: Not identified in any of the samples; details: for Identification status of CSF protein bound: C-36: symbol cells
αSN fibrils [11] = biological target: T5, αSN fibrils; assay: as above; assay type: binding; set-up: key to Identification status of CSF protein bound: αSN: *: Identified, but not quantified; —: Not identified in any of the samples; details: for Identification status of CSF protein bound: αSN: symbol cells
FAS4-AD aggregates [12] = tested on: T6, FAS4-AD aggregates; assay: as above; assay type: binding, human; set-up: key to Identification status of CSF protein bound: FAS4-AD: *: Identified, but not quantified; —: Not identified in any of the samples; details: symbol cells

T3 sequence (P01275 53-81 limits assumed): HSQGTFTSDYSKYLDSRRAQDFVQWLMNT
T4 sequence (P01009 383-418 limits assumed): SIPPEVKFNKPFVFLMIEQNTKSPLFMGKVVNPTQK

| Molecule | Relative composition of plasma proteins bound: Ab1 (Ab1 fibrils [1]) | Relative composition of plasma proteins bound: Ab2 (Ab2 fibrils [2]) | Relative composition of plasma proteins bound: Glucagon (glucagon fibrils [3]) | Relative composition of plasma proteins bound: C-36 (C-36 fibrils [4]; 50:1 w/w plasma protein:fibril) | Relative composition of plasma proteins bound: αSN (αSN fibrils [5]; 50:1 w/w plasma protein:fibril) | Relative composition of plasma proteins bound: FAS4-AD (FAS4-AD aggregates [6]; 50:1 w/w plasma protein:fibril) | Relative composition of CSF proteins bound: Ab1 (Ab1 fibrils [7]) | Relative composition of CSF proteins bound: Ab2 (Ab2 fibrils [8]) | Relative composition of CSF proteins bound: Glucagon (glucagon fibrils [9]) | Relative composition of CSF proteins bound: C-36 (C-36 fibrils [10]; 4:1 w/w CSF protein:fibril) | Relative composition of CSF proteins bound: αSN (αSN fibrils [11]; 4:1 w/w CSF protein:fibril) | Identification status of CSF protein bound: FAS4-AD (FAS4-AD aggregates [12]) | Identification status of plasma protein bound: C-36 (C-36 fibrils [4]) | Identification status of plasma protein bound: αSN (αSN fibrils [5]) | Identification status of plasma protein bound: FAS4-AD (FAS4-AD aggregates [6]) | Identification status of CSF protein bound: C-36 (C-36 fibrils [10]) | Identification status of CSF protein bound: αSN (αSN fibrils [11]) |
| --- | --- | --- | --- | --- | --- | --- | --- | --- | --- | --- | --- | --- | --- | --- | --- | --- | --- |
| Apolipoprotein A-IV: plasma/CSF protein bound to fibrils (protein, UniProt P06727 21-396, looked up) Apolipoprotein A-IV: EVSADQVATVMWDYFSQLSNNAKEAVEHLQKSELTQQLNALFQDKLGEVNTYAGDLQKKLVPFATELHERLAKDSEKLKEEIGKELEELRARLLPHANEVSQKIGDNLRELQQRLEPYADQLRTQVSTQAEQLRRQLTPYAQRMERVLRENADSLQASLRPHADELKAKIDQNVEELKGRLTPYADEFKVKIDQTVEELRRSLAPYAQDTQEKLNHQLEGLTFQMKKNAEELKARISASAEELRQRLAPLAEDVRGNLRGNTEGLQKSLAELGGHLDQQVEEFRRRVEPYGENFNKALVQQMEQLRQKLGPHAGDVEGHLSFLEKDLRDKVNSFFSTFKEKESQDKTLSLPELEQQQEQQQEQQQEQVQMLAPLES | 2.7 ± 0.1 % of total protein | 3.5 ± 0.5 % of total protein | 1.9 ± 0.2 % of total protein | 2.4 ± 0.4 % of total protein | 3.8 ± 0.6 % of total protein | 1.6 ± 0.2 % of total protein | 1.2 ± 0.1 % of total protein | 0.5 ± 0.0 % of total protein | 0.5 ± 0.1 % of total protein | 1.0 ± 0.1 % of total protein | 1.5 ± 0.2 % of total protein | — |  |  |  |  |  |
| Ig γ -3 chain C region: plasma/CSF protein bound to fibrils (protein, UniProt P01860 1-446, looked up) Immunoglobulin heavy constant …: ASTKGPSVFPLAPCSRSTSGGTAALGCLVKDYFPEPVTVSWNSGALTSGVHTFPAVLQSSGLYSLSSVVTVPSSSLGTQTYTCNVNHKPSNTKVDKRVELKTPLGDTTHTCPRCPEPKSCDTPPPCPRCPEPKSCDTPPPCPRCPEPKSCDTPPPCPRCPAPELLGGPSVFLFPPKPKDTLMISRTPEVTCVVVDVSHEDPEVQFKWYVDGVEVHNAKTKPREEQYNSTFRVVSVLTVLHQDWLNGKEYKCKVSNKALPAPIEKTISKTKGQPREPQVYTLPPSREEMTKNQVSLTCLVKGFYPSDIAVEWESSGQPENNYNTTPPMLDSDGSFFLYSKLTVDKSRWQQGNIFSCSVMHEALHNRFTQKSLSLSPELQLEESCAEAQDGELDGLWTTITIFITLFLLSVCYSATVTFFKVKWIFSSVVDLKQTIIPDYRNMIGQGA | 1.0 ± 0.1 % of total protein | 1.1 ± 0.1 % of total protein | 1.0 ± 0.1 % of total protein |  |  |  | 2.5 ± 0.1 % of total protein | 3.0 ± 0.2 % of total protein | 1.4 ± 0.5 % of total protein |  |  | — | * | * | — | * | * |
| Histidine-rich glycoprotein (protein, UniProt P04196 19-525, looked up) Histidine-rich glycoprotein: VSPTDCSAVEPEAEKALDLINKRRRDGYLFQLLRIADAHLDRVENTTVYYLVLDVQESDCSVLSRKYWNDCEPPDSRRPSEIVIGQCKVIATRHSHESQDLRVIDFNCTTSSVSSALANTKDSPVLIDFFEDTERYRKQANKALEKYKEENDDFASFRVDRIERVARVRGGEGTGYFVDFSVRNCPRHHFPRHPNVFGFCRADLFYDVEALDLESPKNLVINCEVFDPQEHENINGVPPHLGHPFHWGGHERSSTTKPPFKPHGSRDHHHPHKPHEHGPPPPPDERDHSHGPPLPQGPPPLLPMSCSSCQHATFGTNGAQRHSHNNNSSDLHPHKHHSHEQHPHGHHPHAHHPHEHDTHRQHPHGHHPHGHHPHGHHPHGHHPHGHHPHCHDFQDYGPCDPPPHNQGHCCHGHGPPPGHLRRRGPGKGPRPFHCRQIGSVYRLPPLRKGEVLPLPEANFPSFPLPHHKHPLKPDNQPFPQSVSESCPGKFKSGFPQVSMFFTHTFPK | 2.5 ± 0.1 % of total protein | 1.8 ± 0.1 % of total protein | 0.4 ± 0.0 % of total protein |  |  |  | 0.4 ± 0.1 % of total protein | 0.6 ± 0.2 % of total protein | 0.1 ± 0.0 % of total protein |  |  | — | — | — | — | * | — |
